15 molecules from US8124742 can be followed below.

The chains are these.
T1: human Rh(D) antigen on Rh(D)-positive red blood cells (human, UniProt Q02161 2-417)
T1 construct: whole, on cells; also called wt; wild type Rh(D)
T1 sequence (looked up): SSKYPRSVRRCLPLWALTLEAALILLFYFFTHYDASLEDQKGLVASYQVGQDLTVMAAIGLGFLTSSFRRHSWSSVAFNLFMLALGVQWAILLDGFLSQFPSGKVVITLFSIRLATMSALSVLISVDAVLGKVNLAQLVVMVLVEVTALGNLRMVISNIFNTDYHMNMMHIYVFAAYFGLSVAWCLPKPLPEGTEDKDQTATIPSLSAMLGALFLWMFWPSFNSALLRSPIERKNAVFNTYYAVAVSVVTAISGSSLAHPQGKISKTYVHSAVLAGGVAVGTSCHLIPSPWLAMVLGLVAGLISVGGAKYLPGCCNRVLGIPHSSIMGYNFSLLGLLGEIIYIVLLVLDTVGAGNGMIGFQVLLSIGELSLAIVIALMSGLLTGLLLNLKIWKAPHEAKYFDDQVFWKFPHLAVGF

B1: E1/M2 (Fab, V domains shown)
VH: EVQLLESGGGLVKPGGSLRLSCAASGFTFSSYSMHWVRQAPGKGLEWVSSISNSNTYIYYADAVKGRFTISRDNAKNSLYLQMNSLRAEDTAVYYCARDSRYSNFLRWVRSDGMDVWGQGTTVIVSS
VL: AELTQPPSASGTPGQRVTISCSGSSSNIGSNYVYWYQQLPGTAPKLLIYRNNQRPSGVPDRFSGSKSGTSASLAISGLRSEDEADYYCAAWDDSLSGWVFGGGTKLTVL
notes: Fab on M13 phage; heavy chain E1 with λ light chain M2; also called E01/M02
B2: E1/M3 (Fab, V domains shown)
VH: EVQLLESGGGLVKPGGSLRLSCAASGFTFSSYSMHWVRQAPGKGLEWVSSISNSNTYIYYADAVKGRFTISRDNAKNSLYLQMNSLRAEDTAVYYCARDSRYSNFLRWVRSDGMDVWGQGTTVIVSS
VL: AELTQPPSASGTPGQRVTISCSGSSSNIGSNYVYWYQQLPGTAPKLLIYRNNQRPSGVPDRFSGSKSGTSASLAISGLRSEAEADYYCAAWDDSLSAVVFGGGTKLTVLL
notes: used both as Fab on M13 phage and as soluble γ1λ Fab; also called E01/M03; anti-epD3
B3: E1/L4 (Fab, V domains shown)
VH: EVQLLESGGGLVKPGGSLRLSCAASGFTFSSYSMHWVRQAPGKGLEWVSSISNSNTYIYYADAVKGRFTISRDNAKNSLYLQMNSLRAEDTAVYYCARDSRYSNFLRWVRSDGMDVWGQGTTVIVSS
VL: AELTQPPSASGTPGQRVSISCSGSSSNIGSNTVNWYQQLPGTAPKLLISTNNQGPSGVPDRFSGSKSGTSSSLAISGLRSEAEDDYYCAAWDDTLNGVVFGGGTKLTVL
notes: Fab on M13 phage; also called E1 with L4
B4: E1/L3 (Fab, V domains shown)
VH: EVQLLESGGGLVKPGGSLRLSCAASGFTFSSYSMHWVRQAPGKGLEWVSSISNSNTYIYYADAVKGRFTISRDNAKNSLYLQMNSLRAEDTAVYYCARDSRYSNFLRWVRSDGMDVWGQGTTVIVSS
VL: AELTQPPSASGTPGQRVTISCSGSSSNIGNNHVSWYQQLPGMAPKLLIYSNGQRPSGVPDRFSGSKSGTSASLAISGLQSEDEADYYCAAWHDSLYGPVFGGGTKLTVL
notes: Fab on M13 phage; also called E1 with L3
B5: SH55 (Fab, V domains shown)
VH: EVQLLESGGGVVQPGRSLRLSCVVSGFTFNNYGMHWVRQAPGKGLEWVAVIWFDGSNKYYADSVKGRFTISRDNSKNTLYLQMNSLRAEDTAVYYCARENQIKLWSRYLYYFDYWGQGTLVTVSS
VL: AELTQPPSASGTPGQRVTISCSGSSSNIGSKYVYWYQQLPGTAPKLLIYSNNQRPSGVPDRFSAFKSGTSASLAITGLQAEDEANYYCQSYDSGLSGWVFGGGTKLTVL
notes: Fab on M13 phage
B6: SH39 (Fab, V domains shown)
VH: VQLLEQSGGGVVQPGRSLRLSCAASGFTFSSYGMHWVRQAPGKGLEWVAVIWFDGSNKEYADSVKGRFTISRDNSKNTLYLQMNSLRAEDTAVYYCAREEVVRGVILWSRKFDYWGQGTLVTVSS
VL: AELTQSPSSLSASVGDRVTITCRASQTIGRYLNWYQQRPGKAPKLLVYAVSSLQSGAPSRFSGSGSGTHFTLTITSLQPEDFATYFCQQSYSSPFTFGQGTKVEIKR
notes: Fab on M13 phage
B7: SH41 (Fab, V domains shown)
VH: EVQLLESGGGVVQPGRSLRLSCAASGFTFSTYGMHWVRQAPGKGLEWVAVIWFDGSNKEYADSVKGRFTISRDNSKNTLYLQMNSLRAEDTAVYYCAREEVVRGVILWSRKFDYWGQGTLVTVSS
VL: AELTQSPSSLSASVGDRVTITCRASQNIRRSLNWYQHKPGRAPRLLIYAASTLQSGVPSRFRGSGSGTDFTLTINSLQPADFATYYCQQSSNTPWTFGHGTKVEIKR
notes: Fab on M13 phage
B8: SH53 (Fab, V domains shown)
VH: EVQLLESGGGGVQPGRSLRLSCAASGFTFNSYAMYWVRQPPGKGLEWVAAIWYDGSNKEYADFVKGRFTISRDNSKNTLSLQMNSLRDEDTAVYYCAREANLLRGWSRYYYGMDVWGQGTTVTVSS
VL: AELQDPVVSVALGQTVRITCQGDGLRSYYASWYQQKPGQAPKLVMYGRNNRPSGIPGRFSGSSSGQTAALTITGTQAEDEADYYCQSRATSGNPVVFGGGTKLTVL
notes: Fab on M13 phage
B9: SH46 (Fab, V domains shown)
VH: VQLLEESGGGVVQPGRSLRLSCAASGFTFSSYGMHWVRQAPGRGLEWVALIWYDGGNKEYADSVKGRFSISRDNSKNTLYLQVNSLRADDTAVYYCARDQRAAAGIFYYSRMDVWGQGTTVTVSS
VL: AELTQSPSSLSASVGDRVTITCRASQYISSYLNWYQQKPGKAPNLLIYAASSLQSGVPSRFSGSGSGTDFTLTISSLQPEDFATYYCQQTYSSPSTFGPGTKVDIKR
notes: Fab on M13 phage
B10: SH54 (Fab, V domains shown)
VH: EVQLLESGGGVVQPGRSLRLSCAASGFTFSRNGMHWVRQAPGKGLEWVAFIWFDGSNKYYADSVKGRFTISRDNSKNTLYLQMNSLRADDTAVYYCAREEALFRGLTRWSYGMDVWGQGTTVSVSS
VL: AELTQSPSSMSASVGDRVTITCRASQSIGTYLNWYQQKPGKAPKLLIYAASSLQSGVPSRFSGSGSGTDFTLTISSLQPEDFATYYCQQSYSTPWTFGQGTKVEIKR
notes: Fab on M13 phage
B11: SH47 (Fab, V domains shown)
VH: EVQLLESGGGVVQPGRSLRLSCAASGFSFSNYAMHWVRQAPGKGLEWVAVTSFDGSIKDYADSVKGRFTISRDNSKNTLYLQMNSLRDEDTAVYYCARERGMIVVVRRRNAFDIWGQGTMVTVSS
VL: AELTQSPSSLSASVGDRVTITCRASQSISNYLNWYQQKPGKAPNLLIYAASSLQSGVPSRFSGSGSGTDFTLTISSLQPEDFATYYCQQSYSYPRTFGQGTKVEIRR
notes: Fab on M13 phage
B12: SH48 (Fab, V domains shown)
VH: EVQLLESGGGVVQPGRSLRLSCAASGFSFSSYGMHWVRQAPGKGLEWVAVISYDGTNKYFADSVKGRFTISRDNSKKTLYLQMTSLRPEDTAVYFCANLRGEVTRRASVPLDIWGQGTMVTVSS
VL: AELTQSPSSLSASVGDRVTITCRASQYISSYLNWYQQKPGKAPNLLIYAASSLQSGVPSRFSGSGSGTDFTLTISSLQPEDFATYYCQQTYSSPSTFGPGTKVDIKR
notes: Fab on M13 phage
B13: SH49 (Fab, V domains shown)
VH: EVQLLESGGGVVQPGRSLRLACAASGFSFRSYGMHWVRQAPGRGLEWVAFTWFDGSNKYYVDSVKGRFTISRDNSKNTLYLEMNSLRVDDTAVYYCAREASMLRGISRYYYAMDVWGPGTTVTVSS
VL: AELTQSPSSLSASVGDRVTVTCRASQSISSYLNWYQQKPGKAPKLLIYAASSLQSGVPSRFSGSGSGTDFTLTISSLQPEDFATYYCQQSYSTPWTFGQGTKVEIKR
notes: Fab on M13 phage
B14: SH51 (Fab, V domains shown)
VH: EVQLLESGGGVVQPGRSLRLACAASGFSFRSYGMHWVRQAPGRGLEWVAFTWFDGSNKYYVDSVKGRFTISRDNSKNTLYLEMNSLRVDDTAVYYCAREASMLRGISRYYYAMDVWGPGTTVTVSS
VL: AELTQSPSFLSASVGDRVTITCRASQGIRSYLAWYQQKPGKAPKLLIYAASTLQSGVPSRFSGSGSGTEFTLTISSLQPEDFATYYCQQLNNYPPFTFGPGTKVDIKR
notes: Fab on M13 phage
B15: SH44 (Fab, V domains shown)
VH: EVQLLESGGGVAQPGRSLRLSCVASGFSLRSYGMHWVRQAPGKGLEWVADIWFDGSNKDYADSVKGRFTISRDNSKNTLYLQMNSLRAEDTAVYYCARDWRVRAFSSGWLSAFDIWGQGTMVTVSS
VL: AELTQSPSSLSASVGDRVIITCRASQTIPRFLNWYQQKPGKAPVLLIHSISSLQSGVPSRFSASGSGTEFTLTISSLQPEDFATYYCQQSYSNLSFGPGTTVDIRR
notes: Fab on M13 phage

The target in one test is T1, human Rh(D) antigen on Rh(D)-positive …. Briefly: agglutination, anti-M13.
For the molecule B1, the binding result is reported as “binds”.

Regarding B2, the binding result was “binds”.

For the molecule B3, the binding result was “binds”.

Consider B4, for which the binding result is listed as “binds”.

The target is the same in the next test. Description: agglutination, anti-M13. This is another data set of the same source. How it is done:
The binding of anti-Rh(D) Fab/phage or soluble Fab molecules to normal or partial Rh(D) antigens was assessed by indirect agglutination assays as described (Siegel et al., 1994, Blood 83:2334; Siegel et al., 1997, J. Immunol. Meth. 206: 73). […] Following a one-hour incubation at 37° C., the RBCs were washed 3 times with 2 ml of cold PBS to remove unbound antibody. The resulting RBC pellets were resuspended in 100 μl of a 10 μg/ml solution of sheep anti-M13 antibody (5 Prime-3 Prime, Boulder, Colo.) for Fab/phage experiments or goat anti-human κ or λ light chain antibody (Tago, Burlingame, Calif.) for $\gamma_1\kappa$ or $\gamma_1\lambda$ soluble Fab experiments, respectively. The RBC suspensions were transferred to the round-bottomed wells of a 96-well microplate and left undisturbed for 2 hours. Negative reactions show sharp ~2 millimeter diameter RBC spots whereas the RBCs in agglutinated wells form a thin carpet coating the entire floor of the well (Siegel et al., 1997, J. Immunol. Meth. 206:73). Agglutination titers for recombinant antibodies were determined by performing serial 2-fold dilutions in 1% BSA/PBS.
Fifty-six randomly chosen colonies were selected, and monoclonal Fab/phage preparations were separately produced from each of these individual colonies, using the methods described herein in Example 1. Rh(D) specificity was determined by indirect agglutination using anti-M13 antibody, as described herein in Examples 1 and 2.
For B5, the binding result is recorded as “binds”.

On to B6, for which the binding result is listed as “binds”.

For B7, the binding result is “binds”.

With B8, the binding result is reported as “binds”.

On to B9, for which the binding result is recorded as “binds”.

On to B10, for which the binding result is “binds”.

As for B11, the binding result is given as “binds”.

With B12, the binding result is reported as “binds”.

As to B13, the binding result is given as “binds”.

B14: the binding result is on record as “binds”.

Take B15: the binding result was “binds”.
